The EC50 (read off the curve) is the concentration needed to bring the measured effect to its halfway point. In general, Kd refers to the equilibrium constant for the complex coming apart. Read a high Kd as lower affinity. A word on the koff: it is the first-order rate constant of dissociation. Read a high koff as a short-lived complex. For orientation: kon means the second-order rate constant of association. Lower therefore signals slower complex formation. One may read the IC50 as the midpoint of a concentration-inhibition curve.

Here are results for 4 molecules from patent US20250042957A1 (Molecular Partners, published 2025).

Changes are numbered by the printed parent chain.

The chains are these.
T1: scCD3εγ
T1 chain 1: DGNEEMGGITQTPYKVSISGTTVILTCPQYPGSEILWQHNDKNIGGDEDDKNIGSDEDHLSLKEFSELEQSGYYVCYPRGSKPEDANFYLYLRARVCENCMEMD
T1 chain 2: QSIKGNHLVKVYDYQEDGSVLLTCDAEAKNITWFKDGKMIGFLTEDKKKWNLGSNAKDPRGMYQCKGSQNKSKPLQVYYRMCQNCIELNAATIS

T2: CD3-specific binding domain (SEQ ID NO: 3) (biotinylated when used as immobilized SPR ligand (site not stated))
T2 construct: also called α-CD3 DARPin
T2 chain: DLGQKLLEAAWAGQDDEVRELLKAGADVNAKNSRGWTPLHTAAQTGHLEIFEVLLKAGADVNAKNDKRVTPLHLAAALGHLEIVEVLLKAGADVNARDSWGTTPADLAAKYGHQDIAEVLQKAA

T3: 2-in-1 DARPin 22 (SEQ ID NO: 91)
T3 chain: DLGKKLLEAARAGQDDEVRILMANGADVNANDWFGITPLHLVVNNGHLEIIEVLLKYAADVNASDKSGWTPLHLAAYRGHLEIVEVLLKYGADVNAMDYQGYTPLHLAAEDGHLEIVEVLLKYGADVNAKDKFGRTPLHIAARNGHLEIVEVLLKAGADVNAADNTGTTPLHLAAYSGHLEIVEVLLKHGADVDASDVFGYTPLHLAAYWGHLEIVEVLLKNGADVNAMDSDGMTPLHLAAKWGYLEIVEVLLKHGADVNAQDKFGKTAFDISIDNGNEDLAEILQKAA

T4: 2-in-1 DARPin 21 (SEQ ID NO: 90)
T4 chain: T3 chain with R135K, N144A

T5: Switchdrug DARPin 18-3
T5 construct: also called 2-in-1 DARPin18 in Format 3
T5 chain: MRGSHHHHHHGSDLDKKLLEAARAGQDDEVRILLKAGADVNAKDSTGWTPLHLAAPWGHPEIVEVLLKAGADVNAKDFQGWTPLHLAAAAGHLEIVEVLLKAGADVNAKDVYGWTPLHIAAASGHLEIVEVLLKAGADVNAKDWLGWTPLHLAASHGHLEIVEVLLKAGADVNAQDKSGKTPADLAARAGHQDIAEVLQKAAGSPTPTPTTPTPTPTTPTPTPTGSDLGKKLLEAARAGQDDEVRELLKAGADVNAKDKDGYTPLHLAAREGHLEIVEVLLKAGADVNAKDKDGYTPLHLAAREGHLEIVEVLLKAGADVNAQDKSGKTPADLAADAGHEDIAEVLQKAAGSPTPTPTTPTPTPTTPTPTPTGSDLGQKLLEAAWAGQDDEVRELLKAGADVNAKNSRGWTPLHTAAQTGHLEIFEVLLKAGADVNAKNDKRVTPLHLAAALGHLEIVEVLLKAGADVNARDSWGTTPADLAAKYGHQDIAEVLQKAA

T6: Switchdrug DARPin 17-3
T6 construct: also called 2-in-1 DARPin17 in Format 3
T6 chain: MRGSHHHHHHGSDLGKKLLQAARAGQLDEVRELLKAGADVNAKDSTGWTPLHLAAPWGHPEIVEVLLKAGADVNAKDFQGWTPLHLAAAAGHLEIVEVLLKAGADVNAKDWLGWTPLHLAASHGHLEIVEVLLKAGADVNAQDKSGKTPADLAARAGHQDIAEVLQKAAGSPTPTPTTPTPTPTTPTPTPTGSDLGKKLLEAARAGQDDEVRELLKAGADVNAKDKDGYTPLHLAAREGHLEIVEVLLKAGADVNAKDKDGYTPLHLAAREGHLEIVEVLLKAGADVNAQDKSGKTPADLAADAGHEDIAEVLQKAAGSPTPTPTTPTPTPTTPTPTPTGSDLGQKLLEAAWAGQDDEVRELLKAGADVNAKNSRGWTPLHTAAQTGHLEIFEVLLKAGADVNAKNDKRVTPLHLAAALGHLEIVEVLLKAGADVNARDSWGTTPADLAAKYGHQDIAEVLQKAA

T7: Switchdrug DARPin 15-3
T7 construct: also called 2-in-1 DARPin15 in Format 3
T7 chain: T6 chain with G15D, Q20E, L27D, E32I

T8: Switchdrug DARPin 17-1
T8 construct: also called 2-in-1 DARPin17 in Format 1
T8 chain: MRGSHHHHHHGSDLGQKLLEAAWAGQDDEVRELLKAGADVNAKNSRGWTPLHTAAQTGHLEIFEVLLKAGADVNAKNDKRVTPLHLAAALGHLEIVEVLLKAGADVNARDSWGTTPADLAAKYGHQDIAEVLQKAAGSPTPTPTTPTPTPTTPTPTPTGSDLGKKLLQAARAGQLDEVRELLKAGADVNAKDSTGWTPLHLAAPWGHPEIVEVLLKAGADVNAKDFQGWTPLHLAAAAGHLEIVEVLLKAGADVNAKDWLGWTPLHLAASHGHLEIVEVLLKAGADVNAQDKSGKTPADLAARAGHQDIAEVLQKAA

B1: Switchdrug DARPin 17-B (designed binder)
chain: MRGSHHHHHHGSDLGKKLLQAARAGQLDEVRELLKAGADVNAKDSTGWTPLHLAAPWGHPEIVEVLLKAGADVNAKDFQGWTPLHLAAAAGHLEIVEVLLKAGADVNAKDWLGWTPLHLAASHGHLEIVEVLLKAGADVNAQDKSGKTPADLAARAGHQDIAEVLQKAAGSPTPTPTTPTPTPTTPTPTPTGSDLGKKLLQAARAGQLDEVRELLKAGADVNAKDQYGRTPLHLAAIKGHLEIVEVLLKAGADVNAKDSLGYTPLHLAAVEGPLEIVEVLLKAGADVNAKDAYGQTPLHIAAAWGHLEIVEVLLKAVADVNAQDKSGKTPADLAARAGHQDIAEVLQKAAGSPTPTPTTPTPTPTTPTPTPTGSDLGQKLLEAAWAGQDDEVRELLKAGADVNAKNSRGWTPLHTAAQTGHLEIFEVLLKAGADVNAKNDKRVTPLHLAAALGHLEIVEVLLKAGADVNARDSWGTTPADLAAKYGHQDIAEVLQKAA
notes: also called 2-in-1 DARPin17 in Format B
B2: α-CD3 DARPin-blocker (SEQ ID NO: 2) (designed binder)
chain: DLGKKLLQAARAGQLDEVRELLKAGADVNAKDAKGLTPLHLAAYHGHLEIVEVLLKAGADVNAKDVYGWTPLHIAAASGHLEIVEVLLKAGADVNAKDWLGWTPLHLAASHGHLEIVEVLLKAGADVNAQDKSGKTPADLAARAGHQDIAEVLQKAA
B3: Aminoglycoside phosphotransferase (APH) (enzyme)
chain: MRGSHHHHHHGSAKMRISPELKKLIEKYRSVKDTEGMSPAKVYKLVGENENLYLKMTDSRYKGTTYDVEREKDMMLWLEGKLPVPKVLHFERHDGWSNLLMSEADGVLCSEEYEDEQSPEKIIELYAECIRLFHSIDISDCPYTNSLDSRLAELDYLLNNDLADVDSENWEEDTPFKDPRELYDFLKTEKPEEELVFSHGDLGDSNIFVKDGKVSGFIDLGRSGRADKWYDIAFCVRSIREDIGEEQYVELFFDLLGIKPDWEKIKYYILLDELF
B4: VEGF165 (ligand, UniProt P15692-4 27-191, looked up)
chain: APMAEGGGQNHHEVVKFMDVYQRSYCHPIETLVDIFQEYPDEIEYIFKPSCVPLMRCGGCCNDEGLECVPTEESNITMQIMRIKPHQGQHIGEMSFLQHNKCECRPKKDRARQENPCGPCSERRKHLFVQDPQTCKCSCKNTDSRCKARQLELNERTCRCDKPRR
modifications: biotinylated in the ELISA of Example 4 (site not stated)
notes: also called biotinylated VEGF165; soluble VEGF

For experiment [1], the target named is T1, scCD3εγ. Put plainly: ELISA, biotinylated scCD3εγ on neutravidin plate, with against without 100 nM VEGF. On the technique in general: ELISA stands for enzyme-linked immunosorbent assay.
Method: (§1) The difference in binding of Switchdrug DARPins to scCD3εγ in presence and absence of VEGF was assessed. […] Said Switchdrug DARPins were mixed with a constant concentration of VEGF (100 nM) and tested for binding to scCD3εγ. […] The difference in EC50 of a construct in presence and absence of VEGF can be referred to as the “activation window”.
(§2) Switchdrug DARPins that were mixed with VEGF were titrated and pre-incubated for 1 day with VEGF in order to establish the thermodynamic equilibrium. These samples were loaded on the ELISA plate, incubated and washed, before the bound Switchdrug DARPins were detected as described above.
Experiment [2] deals with B4. Put plainly: ELISA: plate-bound biotinylated VEGF165, His-tagged construct titrated, no soluble VEGF, anti-His-HRP detection.
Method: Then a titration of the Switchdrug DARPins was applied, incubated and washed. Detection of bound his-tagged constructs was done by anti-RGS(his)4 mAb HRP conjugate, and detected by TMB substrate.
For experiment [3], the target named is B4. The experiment can be described thus: cell-based or functional assay.
The target in experiment [4] is T1, scCD3εγ. Put plainly: ELISA: plate-bound biotinylated scCD3εγ, His-tagged construct titrated in presence of 100 nM soluble VEGF.
Method: as §1, §2
The target of experiment [5] is T2, CD3-specific binding domain (SEQ ID NO: …). Put plainly: SPR (ProteOn), biotinylated CD3-specific binding domain immobilized, multi-trace 50-0.195 nM, 25 C.
For experiment [6], the target named is B4. Put plainly: SPR (ProteOn), VEGF165 immobilized, multi-trace.
Experiment [7] addresses T3, 2-in-1 DARPin 22 (SEQ ID NO: 91).
The target of experiment [8] is T4, 2-in-1 DARPin 21 (SEQ ID NO: 90).
The target in experiment [9] is T5, Switchdrug DARPin 18-3. Put plainly: HTRF: 20 nM Switchdrug DARPin with titrated soluble VEGF; read-out is the construct's binding to 1 nM biotinylated scCD3εγ (release of the α-CD3 binder). (In general: In TR-FRET formats the signal depends on donor and acceptor labels being close together.)
Method: (§3) Said Switchdrug DARPins (20 nM final concentration) were mixed with 1 nM (final concentration) scCD3εγ, 1:200 (final concentration) of anti-FLAG-d2 HTRF antibody-FRET acceptor conjugate (Cisbio) and 1:200 (final concentration) of anti-strep-Tb antibody FRET donor conjugate (Cisbio, France). […] The mix was added to a well of a 384-well plate and incubated for 90 minutes.
Experiment [10] addresses T6, Switchdrug DARPin 17-3. Described as above.
Method: as §3
For the next experiment, the target named is T7, Switchdrug DARPin 15-3. The experiment is described as above.
Experiment [11] has as its target T6, Switchdrug DARPin 17-3. The experiment can be described thus: ELISA: 10 nM Switchdrug DARPin 17-3 pre-incubated with titrated soluble VEGF; read-out is the construct bound to plate-bound biotinylated scCD3εγ (release of the α-CD3 binder).
Method: as §2
The target in experiment [12] is T5, Switchdrug DARPin 18-3. Put plainly: ELISA: 100 nM Switchdrug DARPin 18-3 pre-incubated with titrated soluble VEGF; read-out is the construct bound to plate-bound biotinylated scCD3εγ (release of the α-CD3 binder).
Method: as §2
Another experiment has as its target T8, Switchdrug DARPin 17-1. The experiment can be described thus: ELISA: 10 nM Switchdrug DARPin 17-1 pre-incubated with titrated soluble VEGF; read-out is the construct bound to plate-bound biotinylated scCD3εγ (release of the α-CD3 binder).

Method for Switchdrug DARPin 15-3: as §3
Method for Switchdrug DARPin 17-1: as §2

Take B1: the “activation window (difference in EC50 in presence and absence of VEGF)” value with scCD3εγ [1] was around 178 fold. The “EC50 (read off the curve)” value in the experiment with VEGF165 [2] is around 30 nM; with scCD3εγ [4], around 2 nM. Moreover, the “T-cell activation (CD69+ cells of CD8+ T cells, Molm-13 target cells): activation window” value in the experiment with VEGF165 [3] was 75 fold.
For B2, in experiment [5], binding was characterised by a dissociation constant (Kd) of 0.11 nM, the koff was 8.92e-05 s⁻¹ and the on-rate (kon) was found to be 826000 M⁻¹ s⁻¹. The binding result with VEGF165 [6] is “no binding (tested: 50 nM (highest concentration run))”.
With B3, the 50% inhibitory concentration (IC50) in experiment [7] worked out at 47 nM; in experiment [8] it was 55 nM.
Regarding B4, the “EC50 (read off the curve)” value was around 70 nM in the experiment with Switchdrug DARPin 18-3 [9]; around 30 nM with Switchdrug DARPin 17-3 [10]; around 30 nM in the experiment with Switchdrug DARPin 15-3; around 7 nM in the experiment with Switchdrug DARPin 17-3 [11]; around 40 nM with Switchdrug DARPin 18-3 [12]; around 4 nM with Switchdrug DARPin 17-1.
